Patent US20080193373A1

Key:
[1] = target: SA-B3/OmpA fusion protein (E. coli OmpA with streptavidin binding ligand peptide SA-B3 inserted) (Escherichia coli); experiment: magnetic separation (µMACS column) of a mixed E. coli Top10 culture with streptavidin-coated iron nanoparticles; counted as CFU on plates
[2] = target: SA-B3/OmpA fusion protein (E. coli OmpA with streptavidin binding ligand peptide SA-B3 inserted) (Escherichia coli); experiment: magnetic separation (µMACS column) of a mixed E. coli Top10 culture with streptavidin-coated iron nanoparticles; input mix was about 47% OmpA+/SA-B3+ and 53% OmpA+LUX+; counted as CFU on plates

Sequence of SA-B3/OmpA fusion protein (E. coli OmpA with streptavidin binding ligand peptide SA-B3 inserted) (Escherichia coli) (chain, as listed by the source limits assumed): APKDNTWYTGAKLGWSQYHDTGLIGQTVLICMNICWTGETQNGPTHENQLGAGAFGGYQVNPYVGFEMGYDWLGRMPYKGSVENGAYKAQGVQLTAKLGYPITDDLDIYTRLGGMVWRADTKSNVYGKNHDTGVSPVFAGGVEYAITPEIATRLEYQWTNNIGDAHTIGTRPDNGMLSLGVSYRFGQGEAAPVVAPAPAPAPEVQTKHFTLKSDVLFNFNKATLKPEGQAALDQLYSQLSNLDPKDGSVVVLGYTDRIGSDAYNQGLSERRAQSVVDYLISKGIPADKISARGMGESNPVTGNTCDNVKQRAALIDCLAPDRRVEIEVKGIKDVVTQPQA

Streptavidin-coated iron-nanoparticles (from UniProt P22629 37-163)
proportion of SA-B3-expressing bacteria lost on the columns and while washing [1]: 7%
proportion of bacteria expressing SA-B3 after magnetic separation [2]: 92%
